The test system of test [1] is Experimental Autoimmune Encephalomyelitis (EAE) mouse model. The experiment in a line: EAE mouse model of multiple sclerosis, clinical score. Format: in vivo, mice. The following applies: 15 mg/kg iv at symptom onset (10 days after MOG injection) and at day 20. An excerpt:
Multiple sclerosis (MS) is a progressive inflammatory and demyelinating disease of the human central nervous system (CNS) in which an important role for the immune system in the pathogenesis of the disease is suspected (Lassmann, 2008. J Neurol Sci. 274(1-2):45-7). EAE is an induced disease in mice that affects the central nervous system and constitutes a model for human MS. After a subcutaneous injection of an emulsion with a Complete Freund's Adjuvant (CFA) mixed with oligodendrocyte membrane proteins like myelin oligodendrocyte glycoprotein (MOG), an immune response starts in the periphery and, within 2 weeks, causes inflammation in the CNS. In the same time, we can observe, a progressive ascending paralysis (tail to hindlimb to forelimb). To determine whether B08 anti-CD38 antibody could have beneficial effect in this disease, we injected this antibody (15 mg/kg at symptom onset (10 days after MOG injection) and at day 20).
Animals were anesthetized via inhalation with isoflurane (15 min). Mouse were immunized by subcutaneous injection of an emulsion containing 100 μg MOG peptide 35-55 in Complete Freund's Adjuvant and 500 μg HKMT (Heat-killed Mycobacterium tuberculosis) on day 0. Two hours later, animals received an intraperitoneal injection of 500 ng of pertussis toxin on day 0 and day 2. […]
After immunization, animals were daily monitored for weight and clinical symptoms.

Test [2] has as its system human peripheral blood mononuclear cells (PBMCs). The experiment in a line: IL-10 release from human PBMCs in vitro (ELISA). Format: cell-based. The following applies: PBMCs from 3 healthy donors; 10 μg/ml; LPS 500 ng/mL and interferon-γ 1B 100 ng/mL; 24 hours. As for the experimental part: 3 healthy volunteers (Donor 1: Donor 2: Donor 3) served as blood donors. Venous blood (5 mL) was collected into heparinized tubes and immediately processed. Briefly, blood was diluted 1/1 in pre-warmed RPMI 1640 medium. PBMCs were isolated using gradient centrifugation in Ficoll solution (Sigma; 300×g, 30 min). Isolated PBMCs were re-suspended in 1 volume of pre-warmed RPMI 1640 medium and centrifuged again (300×g, 30 min). PBMCs were re-suspended in RPMI 1640 medium supplemented with 10% human serum (Sigma-Aldrich) at a concentration of 10^7 cells per mL. Cells were seeded in 96 well microplate (100 μL per well). Test compounds (10 μg/ml), LPS (500 ng/mL) and interferon-γ 1B (100 ng/mL) were added to PBMCs culture immediately after plating. After 24 hours, cell culture supernatants were collected and frozen at −80° C. for further processing.
IL-10 levels in cell culture supernatants were assayed using an ELISA human IL-10 kit (Ozyme®) according to the indications for use specified by the manufacturer.
Background: In an ELISA, binding on a coated surface is turned into a signal by an enzyme label.

From patent US20220089765A1, “CD31 COMPETITORS AND USES THEREOF” (ENCEFA, priority 2019, published 2022) come the findings set out here.

B1: Clone B08: anti-human CD38 antibody, HCVR SEQ ID NO: 33 and LCVR SEQ ID NO: 39 (antibody, V domains shown)
VH: EVQLVESGGSLVKPGGSLRLSCAASGFTFSNYYMNWVRQAPGKGLEWISSISGSSRSIYYADFVKGRFTISRDNAKNSLYLQMNSLRAEDTAVYYCVRSSDDYYYDYGMDVWGRGTLVTVSS
VL: QSVLTQPASVSGSPGQSITISCAGTSSDVGGSYSVSWYQQHPGKAPKLMIYDDSNRPSGVSNRFSGSKSGNTASLTISGLQAEDEADYYCSSYTDYSTRVFGGGTKL
modifications: HCVR B08; LCVR B08
On to B1, for which the “clinical score compared with PBS-injected mice” value in test [1] was “significantly reduced”. The IL-10 release result in test [2] is reported as “statistically significantly increased”.
